Assay results published in IntAct's records for PubMed 20956295.

Molecular target: cav1_human CAV1 (UniProt Q03135)
Sequence of UniProt Q03135 (Q03135 whole entry): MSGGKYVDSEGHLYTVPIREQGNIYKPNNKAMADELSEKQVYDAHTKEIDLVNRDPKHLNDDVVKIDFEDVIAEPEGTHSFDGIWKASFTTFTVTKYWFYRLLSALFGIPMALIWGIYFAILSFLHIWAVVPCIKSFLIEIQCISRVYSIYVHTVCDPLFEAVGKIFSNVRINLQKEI

- effect of a mutation on the interaction: disrupting interaction
Substance: Microtubule-associated protein 1 light chain 3 beta (Homo sapiens) (from UniProt Q9GZQ8) Y113A
